Data on one molecule can be found in patent US20180170997A1 (NATIONAL CANCER CENTER, published 2018).

The target in experiment [1] is T1, activation-inducible tumor necrosis factor receptor (AITR) on human T cells (human, UniProt Q9Y5U5 26-241).
T1 construct: whole, on cells; also called GITR; TNFRSF18
T1 sequence (looked up): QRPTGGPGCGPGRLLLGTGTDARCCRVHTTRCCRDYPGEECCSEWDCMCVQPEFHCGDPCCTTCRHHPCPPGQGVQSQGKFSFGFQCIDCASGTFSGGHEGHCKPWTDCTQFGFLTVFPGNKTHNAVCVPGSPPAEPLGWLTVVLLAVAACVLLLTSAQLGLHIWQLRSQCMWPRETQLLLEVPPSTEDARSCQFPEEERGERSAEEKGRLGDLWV
As to the kind of experiment: flow cytometry on stimulated PBMC subsets. (Flow cytometry measures light scatter and fluorescence of single cells or particles in a stream.)

Experiment [2] concerns the target T2, AITR on AITR-overexpressed Jurkat cells (CD5L-AITR-TM-ECD) (human, UniProt Q9Y5U5 26-183, limits assumed).
T2 construct: domain: transmembrane domain (TM)-ECD; also called pcDNA3.1(+)/CD5L-AITR-TM-ECD
T2 sequence (looked up): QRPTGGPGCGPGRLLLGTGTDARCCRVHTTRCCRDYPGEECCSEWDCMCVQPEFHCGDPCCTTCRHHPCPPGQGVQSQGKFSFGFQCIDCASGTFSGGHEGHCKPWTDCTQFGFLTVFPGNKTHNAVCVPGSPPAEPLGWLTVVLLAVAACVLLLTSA
As to the kind of experiment: flow cytometry on AITR-overexpressed Jurkat cells.
Method: In the flow cytometry experiment, the present inventors used fluorochrome-conjugated antibodies against CD4, CDS, CD11c, IFN-γ, Foxp3, CTLA-4, CD62L, CD45RO, CD45RA (BD Bioscience), CD19, CD56, CD14, CD127, IL-4, IL-17A, GATA-3, T-bet, RORγt (ebioscience, San Diego, Calif.), and BDCA-2 (Miltenyi Biotec). […] Intracellular level of cytokines was measured after 5 hour-long pre-incubation with 50 ng/ml phorbol 12-myristate 13-acetate (PMA), 10 μg/ml ionomycin, and 10 μg/ml Brefeldin A (Sigma-Aldrich, St Louis. Mo.). FACSCalibur flow cytometer (BD Bioscience) was used for all of the flow cytometry analysis and WinMDI software (Ver. 2.9, Scripps. Institute) was used for data analysis.
For generating AITR-overexpressing cells, the gene fragment encoding AITR-transmembrane domain (TM)-ECD was inserted in-frame with CD5L sequence in a mammalian vector pcDNA3.1(⁺), i.e. pcDNA3.1(⁺)/CD5L-AITR-TM-ECD. Then pcDNA3.1(⁺)/Empty vector or pcDNA3.1(⁺)/CD5L-AITR-TM-ECD vector was transient transfected into Jurkat cells by electroporation. AITR expression on cell surface was detected by staining with biotin-conjugated anti-AITR mAb.

B1: anti-AITR mAb B32 (antibody, V domains shown)
VH: EVQLLESGGGLIQPGGSLRLSCAASGFTFSTYGMSWVRQAPGKGLEWVSGITGSAGGGSTNYADSVKGRFTISRDNSKNTLYLQMNSLRAEDTAVYYCAKGYSSNWRSAFDIWGQGTMVTVSS
VL: SYELMQPPSVSVSPGQTAGITCSGDALPKQYAYWYQQRPGQAPVLLIYKDTERPSGIPERFSGSSSGTTVTLTISGVQAEDEADYYCQSADSSGTYPVFGGGTKLTVL
notes: also called clone B32
Consider B1, for which the binding result in experiment [1] and in experiment [2] was “binds” throughout.
